In paper PMC6629437 (Cell, 2019):
Changes are numbered by the printed parent chain. In names and notes the source's numbering stands.

T1: HA head domain of H1 A/Solomon Islands/3/2006 (Influenza A virus A/Solomon …, strain)
T1 chain: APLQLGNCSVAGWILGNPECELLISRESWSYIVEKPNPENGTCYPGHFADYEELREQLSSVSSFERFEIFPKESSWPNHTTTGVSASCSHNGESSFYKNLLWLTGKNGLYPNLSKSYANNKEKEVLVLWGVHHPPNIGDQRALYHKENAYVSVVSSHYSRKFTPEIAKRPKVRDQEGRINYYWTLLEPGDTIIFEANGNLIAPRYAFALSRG

B1: rFluA-20 Fab (Fab, V domains shown)
VH: QVQLEESGPGLVKPSETLSLTCSVSGVSVTSDIYYWTWIRQPPGKGLEWIGYIFYNGDTNYNPSLKSRVTMSIDTSKNEFSLRLTSVTAADTAVYFCARGTEDLGYCSSGSCPNHWGQGTLVTVSS
VL: DIVMTQSPSSLSASIGDRVTITCRPSQNIRSFLNWFQHKPGKAPKLLIYAASNLQSGVPSRFSGSGSGTEFTLTIRSLQPEDFATYYCQQSYNTPPTFGQGTKVEIK
B2: rFluA-20 IgG Y49A (L) (antibody, V domains shown)
VH: B1 VH
VL: B1 VL with Y49A
B3: rFluA-20 IgG Q55A (L) (antibody, V domains shown)
VH: B1 VH
VL: B1 VL with Q55A
B4: rFluA-20 IgG D98A (H) (antibody, V domains shown)
VH: B1 VH with D103A
VL: B1 VL

Tests used:
[1] = target: T1, HA head domain of H1 A/Solomon …; experiment: BLI
[2] = target: H1 HA of A/Texas/36/1991 (Influenza A virus A/Texas/36/1991 (H1N1), UniProt Q6WG02, strain); experiment: ELISA

Row | Binder | binding result [1] | binding result [2]
1 | B1 | binds | 
2 | B2 |  | no binding (tested: 10 μg/mL)
3 | B3 |  | binds
4 | B4 |  | no binding (tested: 10 μg/mL)
